The values below come from PMC12403049, “Structural basis of ClC-3 transporter inhibition by TMEM9 and PtdIns(3,5)P2” (Nature Structural & Molecular Biology, 2025).

Series [1] concerns the molecule itself. In words: cryo-EM structure; ClC-3 alone, 3 mg/ml, no exogenous ligands, glyco-diosgenin, 50 mM Tris-HCl pH 8, 150 mM KCl, 2 mM DTT; C2 symmetry.
Series [2] deals with the molecule itself. Nature of the series: cryo-EM structure; ClC-3 co-expressed and co-purified with T9A, 5 mg/ml, no exogenous ligands, glyco-diosgenin, 50 mM Tris-HCl pH 8, 150 mM KCl, 2 mM DTT; four classes by 3D classification.

B1: human ClC-3 purified alone (C-terminal mCerulean tag removed) (natural protein)
chain: MESEQLFHRGYYRNSYNSITSASSDEELLDGAGVIMDFQTSEDDNLLDGDTAVGTHYTMTNGGSINSSTHLLDLLDEPIPGVGTYDDFHTIDWVREKCKDRERHRRINSKKKESAWEMTKSLYDAWSGWLVVTLTGLASGALAGLIDIAADWMTDLKEGICLSALWYNHEQCCWGSNETTFEERDKCPQWKTWAELIIGQAEGPGSYIMNYIMYIFWALSFAFLAVSLVKVFAPYACGSGIPEIKTILSGFIIRGYLGKWTLMIKTITLVLAVASGLSLGKEGPLVHVACCCGNIFSYLFPKYSTNEAKKREVLSAASAAGVSVAFGAPIGGVLFSLEEVSYYFPLKTLWRSFFAALVAAFVLRSINPFGNSRLVLFYVEYHTPWYLFELFPFILLGVFGGLWGAFFIRANIAWCRRRKSTKFGKYPVLEVIIVAAITAVIAFPNPYTRLNTSELIKELFTDCGPLESSSLCDYRNDMNASKIVDDIPDRPAGIGVYSAIWQLCLALIFKIIMTVFTFGIKVPSGLFIPSMAIGAIAGRIVGIAVEQLAYYHHDWFIFKEWCEVGADCITPGLYAMVGAAACLGGVTRMTVSLVVIVFELTGGLEYIVPLMAAVMTSKWVGDAFGREGIYEAHIRLNGYPFLDAKEEFTHTTLAADVMRPRRNDPPLAVLTQDNMTVDDIENMINETSYNGFPVIMSKESQRLVGFALRRDLTIAIESARKKQEGIVGSSRVCFAQHTPSLPAESPRPLKLRSILDMSPFTVTDHTPMEIVVDIFRKLGLRQCLVTHNGRLLGIITKKDILRHMAQTANQDPASIMFN
notes: human ClC-3 (P51790), the long isoform used for structural analysis (proton glutamate E339); The cloning of a C-terminally tagged ClC-3 is not described elsewhere in the methods; Residues of the PreScission linker may be left after cleavage; also called ligand-free human ClC-3; not shown: mCerulean, C-terminal, cleaved
Consider B1, for which the stoichiometry N (usually the number of molecules, sites or subunits per partner or assembly) in series [1] was determined as 2.

B2: human ClC-3 purified in complex with T9A (N-terminal mCerulean tag removed) (natural protein)
chain: B1 chain
notes: human ClC-3 (P51790), the long isoform used for structural analysis (proton glutamate E339); Residues of the PreScission linker may be left on the N-terminus after cleavage; PtdIns(3,5)P2 co-purified with the complex; also called ClC-3/T9A; ClC-3/noT9A; not shown: mCerulean, N-terminal, cleaved
Turning to B2, in series [2], the “stoichiometry N” value was 2.
